Holding throughout (assay type): binding
One test has as its system 147 bp 601 DNA. Put plainly: EMSA with 147 bp 601 DNA. The settings on record: 0.05 µM 147 bp 601 DNA, increasing protein, 25 mM Tris pH 7.5, 20 mM NaCl, 20% glycerol, on ice 5 min, at least in duplicate. On the technique in general: A gel shift assay detects complexes by their altered migration in electrophoresis.
For another test, the system named is H3K4me3-NCP. The note with it: EMSA.
The next test relates to unmodified 187 bp NCP. Put plainly: EMSA with unmodified 187 bp NCP.
The next test has as its system unmodified 147 bp NCP. Briefly: EMSA with unmodified 147 bp NCP. The settings on record: 0.025 µM nucleosome, pH 7.5, compared to H3K4me3-NCP.

Entries after “also recorded” stand apart in the source; their conditions may differ.

B1: ASH1LBD: Human ASH1L bromodomain (aa 2430-2564) (protein)
chain: LAAAEENIEVARAARLAQIFKEICDGIISYKDSSRQALAAPLLNLPPKKKNADYYEKISDPLDLITIEKQILTGYYKTVEAFDADMLKVFRNAEKYYGRKSPVGRDVCRLRKAYYNARHEASAQIDEIVGETASE
modifications: left off: GST, end not stated, cleaved
As for B1, the DNA binding entry in the test with 147 bp 601 DNA is given as “forms a complex with DNA”.

B2: K2524Q/R2528Q/K2529Q mutant: K2524Q/R2528Q/K2529Q mutant of ASH1LBD (protein, UniProt Q9NR48 2430-2564, looked up, variant K2524Q R2528Q K2529Q)
chain: LAAAEENIEVARAARLAQIFKEICDGIISYKDSSRQALAAPLLNLPPKKKNADYYEKISDPLDLITIEKQILTGYYKTVEAFDADMLKVFRNAEQYYGQQSPVGRDVCRLRKAYYNARHEASAQIDEIVGETASE
modifications: bromodomain
notes: K2524Q/R2528Q/K2529Q mutant of ASH1LBD
B2: the DNA binding result in the test on 147 bp 601 DNA was “lost its ability to bind DNA”.

B3: K2477Q/K2478Q/K2479Q mutant: K2477Q/K2478Q/K2479Q mutant of ASH1LBD (protein, UniProt Q9NR48 2430-2564, looked up, variant K2477Q K2478Q K2479Q)
chain: LAAAEENIEVARAARLAQIFKEICDGIISYKDSSRQALAAPLLNLPPQQQNADYYEKISDPLDLITIEKQILTGYYKTVEAFDADMLKVFRNAEKYYGRKSPVGRDVCRLRKAYYNARHEASAQIDEIVGETASE
modifications: bromodomain
notes: K2477Q/K2478Q/K2479Q mutant of ASH1LBD
With B3, the DNA binding result with 147 bp 601 DNA was “diminished”.

B4: ASH1LPHD-BAH: Human ASH1L construct (aa 2579-2794 and 2579-2834) (protein, UniProt Q9NR48 2579-2834, looked up, fragment)
chain: HEKDDDVIRCICGLYKDEGLMIQCDKCMVWQHCDCMGVNSDVEHYLCEQCDPRPVDREVPMIPRPHYAQPGCVYFICLLRDDLLLRQGDCVYLMRDSRRTPDGHPVRQSYRLLSHINRDKLDIFRIEKLWKNEKEERFAFGHHYFRPHETHHSPSRRFYHNELFRVPLYEIIPLEAVVGTCCVLDLYTYCKGRPKGVKEQDVYICDYRLDKSAHLFYKIHRNRYPVCTKPYAFDHFPKKLTPKKDFSPHYVPDNYK
modifications: also 2579-2794 construct
As to B4, the DNA binding entry in the test with 147 bp 601 DNA was “forms a tight complex with 601 DNA”. Further, the “binding to H3K4me3-NCP” value in the test on H3K4me3-NCP (0.025 µM nucleosome, increasing protein, pH 7.5, on ice 5 min) is reported as “formed a tight complex”. In addition, the “binding to unmodified 187 bp NCP” value in the test on unmodified 187 bp NCP (0.025 µM nucleosome, pH 7.5, compared to unmodified 147 bp NCP) is “increased”. For the same molecule, the “binding to unmodified 147 bp NCP” value in the test with unmodified 147 bp NCP is “decreased”.

B5: ASH1LBD-PHD: Human ASH1L construct (aa 2430-2629) (protein)
chain: NIEVARAARLAQIFKEICDGIISYKDSSRQALAAPLLNLPPKKKNADYYEKISDPLDLITIEKQILTGYYKTVEAFDADMLKVFRNAEKYYGRKSPVGRDVCRLRKAYYNARHEASAQIDEIVGETASEADSSETSVSEKENGHEKDDDVIRCICGLYKDEGLMIQCDKCMVWQHCDCMGVNSDVEHYLCEQCDPRPVDREVP
Turning to B5, the DNA binding result with 147 bp 601 DNA was “decreased”.

B6: ASH1LBD-PHD-BAH: Human ASH1L construct (aa 2436-2833) (protein, UniProt Q9NR48 2436-2833, looked up, fragment)
chain: NIEVARAARLAQIFKEICDGIISYKDSSRQALAAPLLNLPPKKKNADYYEKISDPLDLITIEKQILTGYYKTVEAFDADMLKVFRNAEKYYGRKSPVGRDVCRLRKAYYNARHEASAQIDEIVGETASEADSSETSVSEKENGHEKDDDVIRCICGLYKDEGLMIQCDKCMVWQHCDCMGVNSDVEHYLCEQCDPRPVDREVPMIPRPHYAQPGCVYFICLLRDDLLLRQGDCVYLMRDSRRTPDGHPVRQSYRLLSHINRDKLDIFRIEKLWKNEKEERFAFGHHYFRPHETHHSPSRRFYHNELFRVPLYEIIPLEAVVGTCCVLDLYTYCKGRPKGVKEQDVYICDYRLDKSAHLFYKIHRNRYPVCTKPYAFDHFPKKLTPKKDFSPHYVPDNY
On to B6, for which the DNA binding result with 147 bp 601 DNA is on record as “restored; also recorded: further increased”. For the same molecule, the entries for the “preference over 147bp-NCP” value in the test on H3K4me3-NCP (H3K4me3-NCP over 147bp-NCP) and in the test on unmodified 187 bp NCP (187bp-NCP over 147bp-NCP) were “maintained” and “maintained; also recorded: this preference was retained”, respectively.

The values above are taken from paper PMC11883000, “Structure-function relationship of ASH1L and histone H3K36 and H3K4 methylation” (Nature Communications, 2025).
